Experimental data taken from paper PMC3393671.
Numbering of substitutions follows the chain as printed. Numbers in names are those of the source.

B1: GST-Irga6, Q9QZ85 T102D (protein)
chain: MGQLFSSPKSDENNDLPSSFTGYFKKFNTGRKIISQEILNLIELRMRKGNIQLTNSAISDALKEIDSSVLNVAVTGETGSGKSSFINTLRGIGNEEEGAAKDGVVEVTMERHPYKHPNIPNVVFWDLPGIGSTNFPPNTYLEKMKFYEYDFFIIISATRFKKNDIDIAKAISMMKKEFYFVRTKVDSDITNEADGKPQTFDKEKVLQDIRLNCVNTFRENGIAEPPIFLLSNKNVCHYDFPVLMDKLISDLPIYKRHNFMVSLPNITDSVIEKKRQFLKQRIWLEGFAADLVNIIPSLTFLLDSDLETLKKSMKFYRTVFGVDETSLQRLARDWEIEVDQVEAMIKSPAVFKPTDEETIQERLSRYIQEFCLANGYLLPKNSFLKEIFYLKYYFLDMVTEDAKTLLKEICL
B2: GST-Irga6, Q9QZ85 G103R (protein)
chain: B1 chain with D102T, G103R
B3: GST-Irga6, Q9QZ85 Q198E (protein)
chain: B1 chain with D102T, Q198E
B4: GST-Irga6, Q9QZ85 N191R (protein)
chain: B1 chain with D102T, N191R
B5: GST-Irga6, Q9QZ85 K196D (protein)
chain: B1 chain with D102T, K196D
B6: GST-Irga6, Q9QZ85 T108D (protein)
chain: B1 chain with D102T, T108D
B7: GST-Irga6, Q9QZ85 V205R (protein)
chain: B1 chain with D102T, V205R
B8: GST-Irga6, Q9QZ85 E142R (protein)
chain: B1 chain with D102T, E142R
B9: GST-Irga6, Q9QZ85 G195R (protein)
chain: B1 chain with D102T, G195R
B10: GST-Irga6, Q9QZ85 N220R (protein)
chain: B1 chain with D102T, N220R
B11: GST-Irga6, Q9QZ85 C213R (protein)
chain: B1 chain with D102T, C213R
B12: GST-Irga6, Q9QZ85 K169E (protein)
chain: B1 chain with D102T, K169E

Molecular target: ROP5 of T. gondii strain RH-YFP (isoforms not told apart), F2YGR7
Sequence (F2YGR7 25-549): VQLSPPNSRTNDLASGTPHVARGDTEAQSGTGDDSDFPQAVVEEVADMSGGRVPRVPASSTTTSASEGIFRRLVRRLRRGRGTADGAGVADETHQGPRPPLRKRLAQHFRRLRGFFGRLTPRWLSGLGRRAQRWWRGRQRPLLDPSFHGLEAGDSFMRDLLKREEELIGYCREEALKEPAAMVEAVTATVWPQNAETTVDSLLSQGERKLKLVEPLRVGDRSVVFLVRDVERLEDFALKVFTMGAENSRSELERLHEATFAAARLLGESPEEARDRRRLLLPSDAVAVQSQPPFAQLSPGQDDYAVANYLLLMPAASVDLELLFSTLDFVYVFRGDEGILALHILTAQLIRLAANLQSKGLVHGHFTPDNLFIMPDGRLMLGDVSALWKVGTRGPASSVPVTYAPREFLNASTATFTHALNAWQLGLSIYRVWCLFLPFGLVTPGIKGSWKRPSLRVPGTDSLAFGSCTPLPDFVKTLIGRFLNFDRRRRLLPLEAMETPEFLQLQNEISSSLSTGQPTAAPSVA
Test: pull-down (quantitated Western blot)
Conditions: chain shown with the change; 25 µg protein/100 µl 1:1 bead suspension; RH-YFP strain T. gondii lysates; 3E2 antibody (anti-ROP5); GST signal subtracted; parent: est. 100; read off a plot

In order of falling percent of parent (% of wild-type intensity):
1. B1  110
2. B6  77
3. B8  73
4. B2  43
5. B3  32
6. B4  30
7. B12  22
8. B10  20
9. B7  10
10. B9  6.5
11. B11  3.3
12. B5  1.8
